Drawing on publication PMC4596688, “Structural determinants of nuclear export signal orientation in binding to exportin CRM1” (eLife, 2015), this text covers percent of parent and Kd for 16 substances.

For one assay, the target named is Full-length human CRM1 (HsCRM1) (UniProt O14980). The assay can be described thus: GST pull-down, SDS/PAGE band intensity. The settings on record: excess ScRanGTP; triplicate experiments; parent: est. 100; read off a plot.
Sequence of Full-length human CRM1 (HsCRM1) (O14980 whole entry): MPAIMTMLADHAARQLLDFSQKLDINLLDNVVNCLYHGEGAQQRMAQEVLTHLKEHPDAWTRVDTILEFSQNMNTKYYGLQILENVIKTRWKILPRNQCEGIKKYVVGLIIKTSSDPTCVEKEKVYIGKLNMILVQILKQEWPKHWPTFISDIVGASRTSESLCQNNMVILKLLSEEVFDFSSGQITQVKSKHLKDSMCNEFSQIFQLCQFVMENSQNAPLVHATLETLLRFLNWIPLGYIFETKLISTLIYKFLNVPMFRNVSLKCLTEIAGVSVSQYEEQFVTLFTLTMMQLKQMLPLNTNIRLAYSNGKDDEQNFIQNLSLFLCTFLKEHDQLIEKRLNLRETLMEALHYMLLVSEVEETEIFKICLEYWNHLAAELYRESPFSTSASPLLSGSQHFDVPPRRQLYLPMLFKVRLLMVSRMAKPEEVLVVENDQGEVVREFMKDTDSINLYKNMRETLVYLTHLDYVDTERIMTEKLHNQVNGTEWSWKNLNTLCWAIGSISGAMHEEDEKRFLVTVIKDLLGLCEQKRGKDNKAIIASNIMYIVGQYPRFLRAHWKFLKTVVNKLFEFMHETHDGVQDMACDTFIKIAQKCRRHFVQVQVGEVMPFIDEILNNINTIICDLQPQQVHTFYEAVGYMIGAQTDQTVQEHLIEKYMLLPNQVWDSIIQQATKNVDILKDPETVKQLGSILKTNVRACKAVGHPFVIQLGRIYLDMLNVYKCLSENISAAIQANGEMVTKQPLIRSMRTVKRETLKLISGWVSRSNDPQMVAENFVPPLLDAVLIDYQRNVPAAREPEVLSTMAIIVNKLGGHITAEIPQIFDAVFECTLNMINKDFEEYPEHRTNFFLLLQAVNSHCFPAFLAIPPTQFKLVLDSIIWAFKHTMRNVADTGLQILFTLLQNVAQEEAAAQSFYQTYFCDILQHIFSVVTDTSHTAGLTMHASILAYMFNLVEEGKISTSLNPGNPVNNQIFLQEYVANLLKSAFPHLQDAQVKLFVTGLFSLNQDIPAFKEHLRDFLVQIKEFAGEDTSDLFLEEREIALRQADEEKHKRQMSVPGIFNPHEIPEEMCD
Regarding GST-hRio2NES-R F13A, the percent of parent worked out at 17%. Still for that read-out and setting: next, GST-hRio2NES-R F13M: 110%; GST-hRio2NES-R F13P: 33%. Same read-out and setting: the figure for GST-hRio2NES-R F13W is 31%; for GST-hRio2NES-R F13Y it is 17%. GST-hRio2NES-R M11A: the percent of parent worked out at 17%.

In the case of GST-hRio2NES-R M11F, the percent of parent turned out to be 53%.

In the case of GST-hRio2NES-R M11I, the percent of parent was 57%. On to GST-hRio2NES-R M11P, for which the percent of parent is 15%. Still for that read-out and setting: the figure for GST-hRio2NES-R M11V is 17%; for GST-hRio2NES-R M11W it is 80%; for GST-hRio2NES-R M11Y it is 10%.

For a further assay the target is unchanged. The assay can be described thus: competition differential bleaching monitored with a microscale thermophoresis instrument; MBP-NESs serially diluted from 100 μM to 3 nM with 40 nM FITC-PKI^NES, mixed 1:1 with 300 nM HsCRM1 and 120 μM ScRan-GTP; TB buffer with 15% glycerol, 0.05% Tween-20; 1.5 hr, room temperature.
Conditions: not given
On the technique in general: In MST a laser heats a spot of the sample, and binding alters the fluorescence response.
A word on the Kd: it is the free concentration of one partner at which half of the binding sites on the other are occupied at equilibrium, for simple one-to-one binding. Take MBP-CPEB4^NES (peptide): the equilibrium dissociation constant (Kd) turned out to be 590 nM. In other words, the sub-micromolar range.

Substance MBP-CPEB4^NES-R (peptide) returned an equilibrium dissociation constant (Kd) of 780 nM. The same measure, in the same setting: next, MBP-hRio2^NES (peptide): 2200 nM; MBP-hRio2^NES-R (peptide): 2400 nM.
